Substitutions are numbered along the chain they refer to. Numbers in names are those of the source. Where two headings read alike, the source gives them in different places.
T1: human IL-12 (human, UniProt P29460 23-328; P29459 23-219)
T1 construct: Recombinant (Peprotech); FLAG-tagged IL-12 in the flow cytometry assays, biotinylated in the IL-12Rβ2 assay; also called hIL-12
T1 sequence 1: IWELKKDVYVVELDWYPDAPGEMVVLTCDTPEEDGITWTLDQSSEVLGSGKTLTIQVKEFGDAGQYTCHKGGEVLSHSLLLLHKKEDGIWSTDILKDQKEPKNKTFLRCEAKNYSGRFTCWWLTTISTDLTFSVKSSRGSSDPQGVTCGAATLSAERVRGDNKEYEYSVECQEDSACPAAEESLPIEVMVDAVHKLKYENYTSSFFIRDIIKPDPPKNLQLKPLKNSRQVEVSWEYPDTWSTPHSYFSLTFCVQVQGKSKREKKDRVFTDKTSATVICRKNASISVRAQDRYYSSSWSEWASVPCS
T1 sequence 2: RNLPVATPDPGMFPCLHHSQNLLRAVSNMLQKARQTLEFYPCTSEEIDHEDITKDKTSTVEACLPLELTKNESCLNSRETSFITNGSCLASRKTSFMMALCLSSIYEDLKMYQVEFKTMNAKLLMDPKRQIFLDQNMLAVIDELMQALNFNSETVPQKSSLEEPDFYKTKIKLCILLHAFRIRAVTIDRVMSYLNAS

T2: human IL-23 (human, UniProt P29460 23-328; Q9NPF7 20-189)
T2 construct: Recombinant (Ebioscience); HIS-tagged in flow cytometry, biotinylated in some assays; also called hIL-23; rhIL-23
T2 sequence 1: T1 sequence 1
T2 sequence 2: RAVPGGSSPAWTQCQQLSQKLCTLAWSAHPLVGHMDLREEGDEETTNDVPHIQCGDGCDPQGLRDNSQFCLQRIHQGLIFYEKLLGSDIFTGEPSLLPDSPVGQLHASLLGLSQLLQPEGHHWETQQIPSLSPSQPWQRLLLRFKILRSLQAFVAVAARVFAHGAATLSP

B1: Antibody 3 (antibody, human IgG1, kappa, V domains shown)
VH: EVQLQQSGADLVRSGASIKLSCTASGFNIKDYYMHWVKQRPEQGLEWIGWIDPENGDTEYAPKFQGKATMTADTSSNTAYLQLSSLTSEDTAVYYCNACKELRYFDVWGAGTTVTVSS
VL: DIVLTQSPATLSVTPGDSVSLSCRASQSISINLHWYQQKSHESPRLLIKFASQSISGIPSRFSGYGSGTDFTLSINSVETEDFGRYFCQQSNSFPLTFGAGTKLELKR
notes: Antibody 1 with light chain W94F
B2: Antibody 22 (antibody, human IgG1, kappa, V domains shown)
VH: B1 VH with C99V
VL: B1 VL with F94W
B3: Antibody 4 (antibody, human IgG1, kappa, V domains shown)
VH: B1 VH with M34L
VL: B1 VL with F94W
notes: Antibody 1 with heavy chain M34L
B4: Antibody 7 (antibody, human IgG1, kappa, V domains shown)
VH: B1 VH with C99N
VL: B1 VL with F94W
notes: Antibody 1 with heavy chain C95N
B5: Antibody 51 (antibody, human IgG1, kappa, V domains shown)
VH: EVQLVQSGAEVKKPGATVKISCKASGYTFSDYYLHWVRQAPGKGLEWMGWIDPENGDTEYAPKFQGRVTITADTSTDTGYLELSSLRSEDTAVYYCAANKELRYFDVWGQGTLVTVSS
VL: DIQMTQSPSSVSASVGDRVTITCRASQSISINLHWYQQKPGKAPKLLIYFASQSISGVPSRFSGSGSGTDFSLTINSLQPEDFATYYCQQSNSFPLTFGGGTKVEIKR
B6: Antibody 55 (antibody, human IgG1, kappa, V domains shown)
VH: B5 VH with A40R, G42E, R67K
VL: B5 VL
B7: Antibody 54 (antibody, human IgG1, kappa, V domains shown)
VH: B5 VH with R67K
VL: B5 VL
B8: Antibody 57 (antibody, human IgG1, kappa, V domains shown)
VH: B5 VH with A40R
VL: B5 VL with Y49K
B9: Antibody 52 (antibody, human IgG1, kappa, V domains shown)
VH: B5 VH with A40R
VL: B5 VL
B10: Antibody 58 (antibody, human IgG1, kappa, V domains shown)
VH: B5 VH with G42E
VL: B5 VL with Y49K
B11: Antibody 56 (antibody, human IgG1, kappa, V domains shown)
VH: B5 VH
VL: B5 VL with Y49K
B12: scFv combo. # 1 (scFv)
scFv: QVQLVQSGAEVKKPGASVKVSCKASGYTFTDYYLHWVRQAPGRGLEWMGWIDPENGDTEHAPKFQGRVTMTTDTSTSTAYMELRSLRSDDTAVYYCNANKELRYFDVWGQGTMVTVSSGGGGSGGGGSGGGGSEIVMTQSPATLSVSPGERATLSCRASQSISINLHWYQQKPGQAPRLLIYFASQSTSGIPARFSGSGSGTEFTLTISSLQSEDFAVYYCQQSNSFPLTFGGGTKVEIKR
notes: scFv-80 with VH Q43R, Y59H; VL I55T; not shown: proprietary C-terminal FLAG tag
B13: scFv combo. # 10 (scFv)
scFv: B12 scFv with T28A, R43Q, T188I
notes: scFv-80 with VH T28A, Y59H; not shown: proprietary C-terminal FLAG tag
B14: scFv combo. # 6 (scFv)
scFv: B12 scFv with T28A, R43Q, T69S, T188I
notes: scFv-80 with VH T28A, Y59H, T68S; not shown: proprietary C-terminal FLAG tag
B15: scFv combo. # 7 (scFv)
scFv: B12 scFv with F29L, R43Q, T188I
notes: scFv-80 with VH F29L, Y59H; not shown: proprietary C-terminal FLAG tag
B16: scFv combo. # 8 (scFv)
scFv: B12 scFv with F29L, R43Q, H60S, T188I
notes: scFv-80 with VH F29L, Y59S; not shown: proprietary C-terminal FLAG tag
B17: scFv combo. # 9 (scFv)
scFv: B12 scFv with H60S
notes: scFv-80 with VH Q43R, Y59S; VL I55T; not shown: proprietary C-terminal FLAG tag
B18: scFv combo. # 12 (scFv)
scFv: B12 scFv with T28A, R43Q, H60S, T69S, T188I
notes: scFv-80 with VH T28A, Y59S, T68S; not shown: proprietary C-terminal FLAG tag
B19: scFv combo. # 2 (scFv)
scFv: B12 scFv with T28A, R43Q, H60S, T188I
notes: scFv-80 with VH T28A, Y59S; not shown: proprietary C-terminal FLAG tag
B20: scFv combo. # 11 (scFv)
scFv: B12 scFv with R43Q, H60S, S159P, T188I
notes: scFv-80 with VH Y59S; VL S26P; not shown: proprietary C-terminal FLAG tag

Key:
human IL-12 [1] = target: T1, human IL-12; assay: SPR, IgG on Protein A
Experimental: (§1) Using a SPR 3000, Protein A was immobilized onto FC1 and FC2 (or alternatively FC3 and FC4) of a CM5 research grade sensor chip using amine coupling, giving approximately […] RU. FC1 was used a blank throughout the experiments. The experiments were run in HBS-P buffer (SPR). At a flow rate of 20 μl/min, 20 μl of 5 μg/mL of antibody was passed over FC2. IL-12, IL-23 or IL-12p40 (Peprotech) were passed over the surface of FC1 and FC2 at concentrations ranging from 66 nM to 2 nM. Regeneration of the surface was performed using 10 mM Glycine, pH 1.0. The sensorgram data from FC2 was subtracted from FC1 and a buffer only control. The curves were fitted using a 1:1 Langmuir equation to generate the kd, ka and KD values. All curves were fitted with a χ² of less then 2.0 where possible.

human IL-23 [2] = target: T2, human IL-23; assay: SPR, IgG on Protein A
Experimental: as §1

human IL-12 [3] = target: T1, human IL-12; assay: ELISA, coated IL-12
How it was run: (§2)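 Binding values are absorbance readings. After cytokine (1 μg/mL, carbonate buffer pH 9.6) was coated onto Maxisorp plates overnight at 4° C and the plates were blocked with 1% BSA in PBS, antibody titrations were bound for 1 hour at 25° C and detected with HRP-linked goat anti-human IgG or anti-murine immunoglobulin (1:2000). Color from TMB, stopped with 1M HCl, was read at 450 nm with 620 nm as reference.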

human IL-23 [4] = target: T2, human IL-23; assay: ELISA, coated IL-23
Experimental: This cysteine at the start of CDR3 could be oxidized, causing heterogeneity in any resulting antibody product. It could also form complexes by disulphide bond formation. Therefore, each of the other 18 (the exceptions being the original Cys and Trp) amino acids was substituted in this position using gene synthesis, and the antibodies were expressed transiently (Antibodies 5, 6, 7, 8, 9, 10, 11, 12, 13, 14, 15, 16, 17, 18, 19, 20, 21, 22). An ELISA was performed on these antibodies (FIG. 9). Some of the antibodies retained binding activity for both IL-12 and IL-23, others only for one cytokine or the other, while others minimally bound to either cytokine.
IL-12 (Peprotech), IL-23 (Ebioscience™), IL-12p40 (Ebioscience™) or IL-12p80 (Peprotech), was diluted to 1 μg/mL in carbonate coating buffer ([…] pH 9.6) and coated onto a 96 well plate (Nunc™, Maxisorp™) overnight at 4° C. The plate was then washed three times with wash buffer (0.01M PBS pH 7.2, 0.05% Tween-20) and then three times with 0.01M PBS pH 7.2. The wells were then blocked by adding 200 μl of blocking buffer (1% w/v BSA in 0.01 M PBS pH 7.2) to each well and incubating the plate at 25° C. for 1 hour. The antibody was diluted in antibody diluent (1% w/v BSA, 0.05% Tween-20 in 0.01M PBS pH 7.2) sufficient to generate a titration curve. The wells were incubated with the antibody for 1 hour at 25° C. The plate was then washed as previously described. Goat anti-human immunoglobulin G (H+L) antibody HRP conjugate (Zymed®) at 1:2000 in antibody diluent was used to detect bound primary antibody. Goat anti-murine immunoglobulin antibody HRP conjugate (Dako) at 1:2000 in antibody diluent was used to detect bound murine antibody. After incubation at 25° C. for 1 hour the plate was washed again as previously described. TMB substrate solution (Zymed®) was added to each well and the colour allowed to develop; the reaction was terminated by adding 1M HCl to the wells. The absorbance of each well was determined at 450 nm (ref. 620 nm).

human IL-12 [5] = target: T1, human IL-12; assay: ELISA, coated IL-12; remark: listed apart in the source
How it was run: as §2

human IL-23 [6] = target: T2, human IL-23; assay: ELISA, coated IL-23; remark: listed apart in the source
How it was run: as §2

human IL-23 [7] = target: T2, human IL-23; assay: SPR, single 81 nM analyte, scFv via FLAG
human IL-23 [8] = target: T2, human IL-23; assay: SPR, single 81 nM analyte, scFv via FLAG; LOD about 1 × 10^-5 s^-1

Binder	binding result (human IL-12 [5])	binding result (human IL-23 [6])	Kd (human IL-23 [7])	kon (human IL-23 [7])	koff (human IL-23 [8])	further results
B1	–	–	–	–	–	Kd (human IL-12 [1]): 0.0438 nM; koff (human IL-12 [1]): 9.39e-05 s⁻¹; kon (human IL-12 [1]): 2.15e+06 M⁻¹ s⁻¹; Kd (human IL-23 [2]): 0.0896 nM; koff (human IL-23 [2]): 0.000111 s⁻¹; kon (human IL-23 [2]): 1.24e+06 M⁻¹ s⁻¹
B2	–	–	–	–	–	binding result (human IL-12 [3]): binds; binding result (human IL-23 [4]): binds
B3	–	–	–	–	–	Kd (human IL-12 [1]): 0.133 nM; koff (human IL-12 [1]): 0.000204 s⁻¹; kon (human IL-12 [1]): 1.54e+06 M⁻¹ s⁻¹; Kd (human IL-23 [2]): 0.127 nM; koff (human IL-23 [2]): 0.000158 s⁻¹; kon (human IL-23 [2]): 1.25e+06 M⁻¹ s⁻¹
B4	–	–	–	–	–	Kd (human IL-12 [1]): 0.0918 nM; koff (human IL-12 [1]): 0.000167 s⁻¹; kon (human IL-12 [1]): 1.82e+06 M⁻¹ s⁻¹; Kd (human IL-23 [2]): 0.0722 nM; koff (human IL-23 [2]): 0.000147 s⁻¹; kon (human IL-23 [2]): 2.03e+06 M⁻¹ s⁻¹
B5	binds	binds	–	–	–	–
B6	binds	binds	–	–	–	–
B7	binds	binds	–	–	–	–
B8	binds	binds	–	–	–	–
B9	binds	binds	–	–	–	–
B10	binds	binds	–	–	–	–
B11	binds	binds	–	–	–	–
B12	–	–	≤ 0.032 nM	230000 M⁻¹ s⁻¹	< 1e-05 s⁻¹	–
B13	–	–	≤ 0.013 nM	220000 M⁻¹ s⁻¹	< 1e-05 s⁻¹	–
B14	–	–	≤ 0.041 nM	230000 M⁻¹ s⁻¹	< 1e-05 s⁻¹	–
B15	–	–	≤ 0.0033 nM	200000 M⁻¹ s⁻¹	< 1e-05 s⁻¹	–
B16	–	–	≤ 0.0075 nM	200000 M⁻¹ s⁻¹	< 1e-05 s⁻¹	–
B17	–	–	≤ 0.027 nM	220000 M⁻¹ s⁻¹	< 1e-05 s⁻¹	–
B18	–	–	≤ 0.016 nM	220000 M⁻¹ s⁻¹	< 1e-05 s⁻¹	–
B19	–	–	≤ 0.034 nM	230000 M⁻¹ s⁻¹	< 1e-05 s⁻¹	–
B20	–	–	≤ 0.027 nM	220000 M⁻¹ s⁻¹	< 1e-05 s⁻¹	–

From patent US20110262445A1 (CEPHALON AUSTRALIA, published 2011)
